Assay results published in PMC12552936, “Protein inhibitor of retinal membrane guanylyl cyclase suppresses cGMP synthesis in photoreceptors” (The Journal of Biological Chemistry, 2025).
Where a chain is given by its changes, count along the chain named. Names and notes keep the numbering of the source. One block for each molecule: values may come before it.

Tests used:
[1] = molecular target: mOrange-tagged RetGC1 (retinal membrane guanylyl cyclase 1) (human) (UniProt Q02846)
[2] = molecular target: T1, mOrange-tagged RetGC1 (retinal membrane guanylyl cyclase 1) (human, UniProt Q02846 52-1103); assay: cell-based or functional assay
T1 sequence (looked up): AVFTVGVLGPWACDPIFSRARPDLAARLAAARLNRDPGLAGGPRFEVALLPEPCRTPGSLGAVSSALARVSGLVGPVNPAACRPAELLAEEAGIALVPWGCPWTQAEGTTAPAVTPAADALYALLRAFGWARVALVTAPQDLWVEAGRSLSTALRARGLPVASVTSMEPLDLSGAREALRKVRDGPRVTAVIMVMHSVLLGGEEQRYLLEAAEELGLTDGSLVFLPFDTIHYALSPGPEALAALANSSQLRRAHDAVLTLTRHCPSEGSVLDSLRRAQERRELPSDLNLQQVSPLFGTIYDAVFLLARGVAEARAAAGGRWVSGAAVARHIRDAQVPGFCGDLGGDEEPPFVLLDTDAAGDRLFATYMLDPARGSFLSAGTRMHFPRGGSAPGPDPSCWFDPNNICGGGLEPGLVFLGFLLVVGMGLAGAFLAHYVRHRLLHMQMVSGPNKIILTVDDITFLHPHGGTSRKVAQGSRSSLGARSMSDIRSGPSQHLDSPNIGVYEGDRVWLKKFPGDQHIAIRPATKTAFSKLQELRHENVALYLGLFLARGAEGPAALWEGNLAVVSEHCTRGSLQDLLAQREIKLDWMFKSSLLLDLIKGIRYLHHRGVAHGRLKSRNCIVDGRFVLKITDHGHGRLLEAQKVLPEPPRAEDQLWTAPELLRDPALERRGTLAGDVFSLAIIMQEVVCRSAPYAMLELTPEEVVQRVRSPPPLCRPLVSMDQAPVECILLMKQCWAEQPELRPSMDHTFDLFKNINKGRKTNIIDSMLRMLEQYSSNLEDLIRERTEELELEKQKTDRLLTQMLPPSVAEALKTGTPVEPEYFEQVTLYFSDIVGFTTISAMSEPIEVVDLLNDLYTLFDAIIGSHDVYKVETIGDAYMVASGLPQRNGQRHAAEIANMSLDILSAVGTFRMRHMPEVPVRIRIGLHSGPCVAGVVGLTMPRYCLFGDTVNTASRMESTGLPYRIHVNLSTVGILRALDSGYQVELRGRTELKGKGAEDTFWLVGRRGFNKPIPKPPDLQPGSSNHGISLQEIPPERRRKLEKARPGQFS

[3] = molecular target: native RetGC of the mouse retina (endogenous RetGC in retinal homogenates and isolated rod outer segments)

- inhibition of the activity of recombinant RetGC1 in HEK293 membranes reconstituted with 1 μM GCAP1 (blocked pair: RetGC1:GCAP1), 2 mM EGTA, 10 mM MgCl2; IC50 [1]: 300 nM
Molecule: M26R/L176F GCAP1 (from UniProt P46065 1-205) (natural protein)

- inhibition of the activity of recombinant RetGC1 in HEK293 membranes reconstituted with 1 μM GCAP1 (blocked pair: RetGC1:GCAP1), 2 mM EGTA, 10 mM MgCl2; IC50 [1]: 640 nM
B1: M26R GCAP1 (natural protein)
chain: MGNIMDGKSVEELSSTECHQWYKKFRTECPSGQLTLYEFRQFFGLKNLSPWASQYVEQMFETFDFNKDGYIDFMEYVAALSLVLKGKVEQKLRWYFKLYDVDGNGCIDRDELLTIIRAIRAINPCSDSTMTAEEFTDTVFSKIDVNGDGELSLEEFMEGVQKDQMLLDTLTRSLDLTRIVRRLQNGEQDEEGASGRETEAAEADG
modifications: N-terminal myristoyl

- activation of recombinant human RetGC1 by Mg2+GCAP1 in the absence of Ca2+, dose dependence (Fig. 3A inset); EC50 [2]: ~1500 nM
B2: GCAP1-GFP (wildtype GCAP1 tagged with GFP) (natural protein, bovine, UniProt P46065 1-205, looked up)
chain: B1 chain with R26M

- total RetGC activity in the rod outer segment fraction isolated from wildtype mouse retinas with 3 μM PIGCY (32 without PIGCY) (nmol cGMP/min/mg rhodopsin) [3]: 11
- inhibition by PIGCY of RetGC1 preactivated by 1 μM bovine recombinant GCAP1 (blocked pair: RetGC1:bovine GCAP1), 2 mM EGTA, 10 mM MgCl2; IC50 [2]: 51 nM
- inhibition by PIGCY of RetGC1 preactivated by 1 μM human recombinant GCAP1 (blocked pair: RetGC1:human GCAP1), 2 mM EGTA, 10 mM MgCl2; IC50 [2]: 75 nM
- inhibition by PIGCY of RetGC1 preactivated by 1 μM mouse recombinant GCAP1 (blocked pair: RetGC1:mouse GCAP1), 2 mM EGTA, 10 mM MgCl2; IC50 [2]: 91 nM
- inhibition of the activity of recombinant RetGC1 in HEK293 membranes reconstituted with 1 μM GCAP1 (blocked pair: RetGC1:GCAP1), 2 mM EGTA, 10 mM MgCl2; IC50 [2]: 52 nM
- reduction of Vmax of recombinant human RetGC1 in HEK293 membranes reconstituted with 2 μM wildtype GCAP1 by 0.35 μM PIGCY (blocked pair: RetGC1:GCAP1) [2]: > 3 fold
B3: PIGCY-GFP (protein inhibitor of retinal guanylyl cyclase, M26R/G86R/L176F GCAP1, tagged with GFP at the C-terminus) (designed binder)
chain: B1 chain with G86R, L176F
